In patent EP3370777B1 one finds ADP-ribosylation activity EC50 [µg/µl] (Example 1, soluble fraction) and ADP-ribosylation activity EC50 [µg/µl] (Example 2, method of the invention) data, which are given here for 1 substance.

In the experiment the target is His-tagged eukaryotic Elongation Factor 2 (eEF2) expressed in S. cerevisiae. Description: cell-based or functional assay.

The substance “recombinant Exotoxin A (SEQ ID NO: 4), expressed in E. coli NiCo21(DE3) as His-tagged SUMO fusion, SUMO-tag removed (enzyme)” showed an ADP-ribosylation activity EC50 [µg/µl] (Example 1, soluble fraction) of 0.6 µg/µL and an ADP-ribosylation activity EC50 [µg/µl] (Example 2, method of the invention) of 0.52 µg/µL.
